Experimental data taken from patent US20150344570A1 (published 2015).
Where a chain is given by its changes, count along the chain named. Numbers in names are those of the source.

T1: FcγRIIa R extracellular domain with C-terminal His tag (human, UniProt P12318 34-217)
T1 construct: extracellular domain; Soluble receptor, R131 allotype; also called FcgRIIa R; FcgRIIaR; not shown: His tag at the C terminus
T1 sequence (looked up): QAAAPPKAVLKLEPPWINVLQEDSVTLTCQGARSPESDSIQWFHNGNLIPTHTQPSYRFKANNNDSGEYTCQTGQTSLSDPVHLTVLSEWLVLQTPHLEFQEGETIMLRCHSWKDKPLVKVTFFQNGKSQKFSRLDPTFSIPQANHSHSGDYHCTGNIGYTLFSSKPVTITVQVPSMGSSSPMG

T2: FcγRIIa H extracellular domain with C-terminal His tag (human, UniProt P12318 34-217)
T2 construct: extracellular domain; Soluble receptor, H131 allotype; also called FcgRIIa H; FcgRIIaH; not shown: His tag at the C terminus
T2 sequence (looked up): T1 sequence (looked up) with R134H

T3: FcγRIIb extracellular domain with C-terminal His tag (human, UniProt P31994 43-217)
T3 construct: extracellular domain; also called FcgRIIb; CD32B; not shown: His tag at the C terminus
T3 sequence (looked up): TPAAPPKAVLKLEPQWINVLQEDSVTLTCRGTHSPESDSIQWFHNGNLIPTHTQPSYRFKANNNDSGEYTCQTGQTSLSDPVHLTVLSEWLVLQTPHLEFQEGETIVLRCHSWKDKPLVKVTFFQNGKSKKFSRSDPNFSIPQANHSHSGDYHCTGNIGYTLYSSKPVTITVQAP

T4: FcgRIIb extracellular domain, C-terminal His tag (human, UniProt P31994 43-217)
T4 construct: extracellular domain; Soluble analyte in Biacore; also called FcγRIIb; not shown: His tag at the C terminus
T4 sequence (looked up): T3 sequence (looked up)

T5: FcgRIIa R type extracellular domain, C-terminal His tag (human, UniProt P12318 34-217)
T5 construct: extracellular domain; Soluble analyte in Biacore; also called FcγRIIa R; FcγRIIa(R); not shown: His tag at the C terminus
T5 sequence (looked up): T1 sequence (looked up)

T6: FcgRIIa H type extracellular domain, C-terminal His tag (human, UniProt P12318 34-217)
T6 construct: extracellular domain; Soluble analyte in Biacore; also called FcγRIIa H; FcγRIIa(H); not shown: His tag at the C terminus
T6 sequence (looked up): T1 sequence (looked up) with R134H

B1: H240-Kn061/H240-Hl071/L73-k0 variant with F241L introduced into H chain H240-Hl071 (antibody, human IgG1, kappa)
heavy 1: QDQLVQSGAEVKKPGASVKVSCKASGFNIKDTYIQWVRQAPGQGLEWMGRIDPLRKQTKYREKFEGRVTITADTSTNTAYMELSSLRSEDTAVYYCVRSGREFDYWGQGTLVTVSSASTKGPSVFPLAPSSKSTSGGTAALGCLVKDYFPEPVTVSWNSGALTSGVHTFPAVLQSSGLYSLSSVVTVPSSSLGTQTYICNVNHKPSNTKVDKKVEPKSCDKTHTCPPCPAPEYYWGPSVFLFPPKPKDTLMISRTPEVTCVVVDVSDEDPEVKFNWYVDGVEVHNAKTKPREEQYNATYRVVSVLTVLHQDWLNGKEYKCKVSNKALPAPIEKTISKAKGQPREPQVCTLPPSRDELTKNQVSLWCLVKGFYPSDIAVEWESNGQPENNYKTTPPVLDSDGSFFLYSKLTVDKSRWQQGNVFSCSVMHEALHNHYTQKSLSLSP
heavy 2: QDQLVQSGAEVKKPGASVKVSCKASGFNIKDTYIQWVRQAPGQGLEWMGRIDPLRKQTKYREKFEGRVTITADTSTNTAYMELSSLRSEDTAVYYCVRSGREFDYWGQGTLVTVSSASTKGPSVFPLAPSSKSTSGGTAALGCLVKDYFPEPVTVSWNSGALTSGVHTFPAVLQSSGLYSLSSVVTVPSSSLGTQTYICNVNHKPSNTKVDKKVEPKSCDKTHTCPPCPAPELLGGPSVLLFPPKPKDTLMISRTPEVTCVVVDVSHEDPEVKFNWYVDGVEVHNAKTKPREEQYNSTYRVVSVLTVLHQDWLNGKEYKCKVSNDALPMPIEETISKAKGQPREPQVYTLPPSRCELTKNQVSLSCAVKGFYPSDIAVEWESNGQPENNYKTTPPVLDSDGSFFLVSKLTVDKSRWQQGNVFSCSVMHEALHNHYTQKSLSLSP
light: DIQMTQSPSSLSASVGDRVTITCRASQDIHKYIAWYQQKPGQAPRLLIQYTSTLQPGVPSRFSGSGSGTDYTFTISSLQPEDIATYYCLQYEQLRTFGGGTKVEIKRTVAAPSVFIFPPSDEQLKSGTASVVCLLNNFYPREAKVQWKVDNALQSGNSQESVTEQDSKDSTYSLSSTLTLSKADYEKHKVYACEVTHQGLSSPVTKSFNRGEC
notes: Point variant of the heterodimerized anti-epiregulin IgG1 template; also called H240-Hl071 F241L
B2: H240-Kn061/H240-Hl071/L73-k0 variant with F241M introduced into H chain H240-Hl071 (antibody, human IgG1, kappa)
heavy 1: B1 heavy 1
heavy 2: B1 heavy 2 with L240M
light: B1 light
notes: Point variant of the heterodimerized anti-epiregulin IgG1 template; also called H240-Hl071 F241M
B3: H240-Kn061/H240-Hl071/L73-k0 variant with L235F introduced into H chain H240-Hl071 (antibody, human IgG1, kappa)
heavy 1: B1 heavy 1
heavy 2: B1 heavy 2 with L234F, L240F
light: B1 light
notes: Point variant of the heterodimerized anti-epiregulin IgG1 template; also called H240-Hl071 L235F
B4: H240-Kn061/H240-Hl071/L73-k0 variant with V240A introduced into H chain H240-Hl071 (antibody, human IgG1, kappa)
heavy 1: B1 heavy 1
heavy 2: B1 heavy 2 with V239A, L240F
light: B1 light
notes: Point variant of the heterodimerized anti-epiregulin IgG1 template; also called H240-Hl071 V240A
B5: H240-Kn061/H240-Hl071/L73-k0 variant with V240F introduced into H chain H240-Hl071 (antibody, human IgG1, kappa)
heavy 1: B1 heavy 1
heavy 2: B1 heavy 2 with V239F, L240F
light: B1 light
notes: Point variant of the heterodimerized anti-epiregulin IgG1 template; also called H240-Hl071 V240F
B6: H240-Kn061/H240-Hl071/L73-k0 variant with Y234E introduced into H chain H240-Kn061 (antibody, human IgG1, kappa)
heavy 1: B1 heavy 1 with Y233E
heavy 2: B1 heavy 2 with L240F
light: B1 light
notes: Point variant of the heterodimerized anti-epiregulin IgG1 template; also called H240-Kn061 Y234E
B7: H240-Kn061/H240-Hl071/L73-k0 variant with Y235N introduced into H chain H240-Kn061 (antibody, human IgG1, kappa)
heavy 1: B1 heavy 1 with Y234N
heavy 2: B1 heavy 2 with L240F
light: B1 light
notes: Point variant of the heterodimerized anti-epiregulin IgG1 template; also called H240-Kn061 Y235N
B8: H240-Kn120/H240-Hl073/L73-k0 (antibody, human IgG1, kappa)
heavy 1: B1 heavy 1 with S238M, A326D
heavy 2: B1 heavy 2 with G235S, L240F, D269E, M329K
light: B1 light
notes: also called H240-Kn120/H240-HI073/L73-k0
B9: H240-Kn120/H240-Hl085/L73-k0 (antibody, human IgG1, kappa)
heavy 1: B1 heavy 1 with S238M, A326D
heavy 2: B1 heavy 2 with G235V, L240F, D269E, M329K
light: B1 light
notes: also called H240-Kn120/H240-HI085/L73-k0
B10: H240-Kn120/H240-Hl086/L73-k0 (antibody, human IgG1, kappa)
heavy 1: B1 heavy 1 with S238M, A326D
heavy 2: B1 heavy 2 with G235I, L240F, D269E, M329K
light: B1 light
notes: also called H240-Kn120/H240-HI086/L73-k0

These binders were tested against T1, FcγRIIa R extracellular domain with … (assay: SPR (Biacore); KD of H240-Kn061/H240-Hl071/L73-k0 divided by KD of the variant).

Binder | relative KD
B1 | 1.2
B2 | 1.3
B3 | 1.2
B4 | 1
B5 | 1.1
B6 | 1.4
B7 | 1

These binders were tested against T2, FcγRIIa H extracellular domain with … in the same assay as above.

Binder | relative KD
B1 | 1.2
B2 | 1.1
B3 | 1.1
B4 | 1.2
B5 | 0.9
B6 | 0.7
B7 | 0.7

These binders were tested against T7, FcγRIIIa V extracellular domain with C-terminal His tag (human, UniProt P08637 17-208) in the same assay as above.
T7 construct: extracellular domain; Soluble receptor, V158 allotype; also called FcgRIIIa V; FcgRIIIaV; not shown: His tag at the C terminus
T7 sequence (P08637 17-208 F176V): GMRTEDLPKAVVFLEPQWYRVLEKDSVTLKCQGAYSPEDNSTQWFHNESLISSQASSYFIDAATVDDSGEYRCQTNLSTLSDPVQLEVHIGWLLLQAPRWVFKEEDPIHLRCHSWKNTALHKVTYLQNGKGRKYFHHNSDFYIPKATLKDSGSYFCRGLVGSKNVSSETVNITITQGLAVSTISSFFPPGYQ

Binder | relative KD
B1 | 1.3
B2 | 1.3
B3 | 1.6
B4 | 1.7
B5 | 1
B6 | 1.6
B7 | 2

What follows are binders tested against T3, FcγRIIb extracellular domain with … in the same assay as above.

Binder | relative KD
B1 | 0.8
B2 | 0.9
B3 | 1
B4 | 1
B5 | 0.9
B6 | 0.5
B7 | 0.7

Each binder was assayed against T8, FcγRIIIa F extracellular domain with C-terminal His tag (human, UniProt P08637 17-208) in the same assay as above.
T8 construct: extracellular domain; Soluble receptor, F158 allotype; also called FcgRIIIa F; FcgRIIIaF; not shown: His tag at the C terminus
T8 sequence (P08637 17-208): as the sequence (P08637 17-208 F176V) above, with V160F counted along it

Binder | relative KD
B1 | 1.3
B2 | 1.3
B3 | 1.9
B4 | 1.3
B5 | 1.4
B6 | 1.9
B7 | 1.3

These binders were tested against T4, FcgRIIb extracellular domain, … (assay: SPR (Biacore); KD of H240-Kn120/H240-Hl068/L73-k0 divided by KD of the variant).
Method: (§1) Analysis of interaction between objective antibody and the FcγR was carried out using Biacore T100 (GE Healthcare), Biacore T200, Biacore A100, and Biacore 4000. HBS-EP+ (GE Healthcare) was used as the running buffer, and the measurement temperature was set to 25° C. Chips produced by immobilizing the antigen peptide by the amine coupling method to a Series S sensor Chip CM5 (GE Healthcare), chips produced by allowing preliminarily biotinylated antigen peptides to interact with and immobilize onto a Series S Sensor Chip SA (certified) (GE Healthcare), chips produced by immobilizing Protein L (ACTIGEN, BioVision) to Series S Sencor Chip CM5 (GE Healthcare), or chips produced by immobilizing Protein A/G (Thermo Scientific) to Series S Sencor Chip CM5 (GE Healthcare) were used. Antibodies of interest were captured onto these chips, and allowed to interact to each FcγR diluted with running buffer. To regenerate and repeatedly use the chip, the antibodies captured onto the chip were washed off by reacting 10 mM glycine-HCl, pH 1.5.

Binder | relative KD
B8 | 0.7
B9 | 0.4
B10 | 0.3

The binders below were run against T5, FcgRIIa R type extracellular domain, … in the same assay as above.
Method: as §1

Binder | relative KD
B8 | 1.3
B9 | 1.1
B10 | 0.9

The binders below were run against T9, FcgRIIIa F type extracellular domain, C-terminal His tag (human, UniProt P08637 17-208) in the same assay as above.
T9 construct: extracellular domain; Soluble analyte in Biacore; also called FcγRIIIa F; not shown: His tag at the C terminus
T9 sequence (P08637 17-208): as the sequence (P08637 17-208 F176V) above, with V160F counted along it
Method: as §1

Binder | relative KD
B8 | 0.3
B9 | 0.1
B10 | 0.1

The binders below were run against T6, FcgRIIa H type extracellular domain, … in the same assay as above.
Method: as §1

Binder | relative KD
B8 | 2
B9 | 0.9
B10 | 0.8

The binders below were run against T10, FcgRIIIa V type extracellular domain, C-terminal His tag (human, UniProt P08637 17-208) in the same assay as above.
T10 construct: extracellular domain; Soluble analyte in Biacore; also called FcγRIIIa V; not shown: His tag at the C terminus
T10 sequence (P08637 17-208 F176V): as the sequence (P08637 17-208 F176V) above
Method: as §1

Binder | relative KD
B8 | 0.2
B9 | 0.1
B10 | 0
